Reference: article PMC5693851

Columns and labels:
Details in all cases: glycan lost; control: wild type
[1] = non-reducing western blot of culture medium, HeLa/Hek293
[2] = non-reducing western blot of culture medium
[3] = fluorogenic substrate assays, lysates of transfected or conditioned HeLa
[4] = non-reducing western blot of recipient cell lysates
[5] = conditioned medium, western blot of recipient cell lysates
[6] = immunofluorescence, endo/lysosomal (LAMP-1) vs Golgin-97 colocalisation

Protein	expression_or_secretion [1]	oligomerisation [2]	other: inhibition of intracellular peptidases [3]	other: proteolytic processing (dimer to monomer conversion) [4]	other: uptake by recipient cells [5]	localisation_or_trafficking [6]
cystatin F: N6162SN115Q (protein) parent chain: MRAAGTLLAFCCLVLSTTGGPSPDTCSQDLNSRVKPGFPKTIKTNDPGVLQAARYSVEKFNNCTNDMFLFKESRITRALVQIVKGLKYMLEVEIGRTTCKKNQHLRLDDCDFQTNHTLKQTLSCYSEVWVVPWLQHFEVPVLRCH	no change	no change	abolishes	abolishes	decreases	decreases
cystatin F: N6162S (protein) parent chain: MRAAGTLLAFCCLVLSTTGGPSPDTCSQDLNSRVKPGFPKTIKTNDPGVLQAARYSVEKFNNCTNDMFLFKESRITRALVQIVKGLKYMLEVEIGRTTCKKNQHLRLDDCDFQTNHTLKQTLSCYSEVWVVPWLQHFEVPVLRCH	no change	no change	decreases	decreases	decreases	decreases
